Measured values: paper doi:10.1101/460097

Columns and labels:
[1] = biological target: mouse (Mus musculus) PCDH15 EC10-MAD12 produced in mammalian cells (mouse (Mus musculus)); test: AUC
[2] = biological target: mouse (Mus musculus) PCDH15 EC10-MAD12 produced in mammalian cells (mouse (Mus musculus)); test: SEC-MALS
[3] = biological target: mouse (Mus musculus) PCDH15 EC10-MAD12, refolded from bacteria (mouse (Mus musculus)); test: SEC-MALS
[4] = biological target: mouse (Mus musculus) PCDH15 EC10-MAD12, refolded from bacteria (mouse (Mus musculus)); test: SEC-SAXS
[5] = biological target: pig (Sus scrofa) PCDH15 EC10-MAD12 (pig (Sus scrofa)); test: AUC
[6] = biological target: pig (Sus scrofa) PCDH15 EC10-MAD12 (pig (Sus scrofa)); test: SEC-MALS
[7] = biological target: pig (Sus scrofa) PCDH15 EC10-MAD12 (pig (Sus scrofa)); test: SEC-SAXS

“mouse (Mus musculus) PCDH15 EC10-MAD12 produced in mammalian cells (domain or fragment)” showed a stoichiometry N [1] of 2 and a stoichiometry N [2] of 2.

“mouse (Mus musculus) PCDH15 EC10-MAD12, refolded from bacteria (domain or fragment)” showed a stoichiometry N [3] of 2 and a stoichiometry N [4] of 2.

“pig (Sus scrofa) PCDH15 EC10-MAD12 (domain or fragment)” was tested, and the stoichiometry N [5] was 2, the stoichiometry N [6] was 2 and the stoichiometry N [7] was 2.
